Positions count from the first letter of the chain named.
T1: biotinylated recombinant TPBG protein (Homo sapiens (Human), UniProt Q13641 32-355, Biotinylated; the number and positions of the biotin labels are not stated and the letters do not carry them.)
T1 sequence: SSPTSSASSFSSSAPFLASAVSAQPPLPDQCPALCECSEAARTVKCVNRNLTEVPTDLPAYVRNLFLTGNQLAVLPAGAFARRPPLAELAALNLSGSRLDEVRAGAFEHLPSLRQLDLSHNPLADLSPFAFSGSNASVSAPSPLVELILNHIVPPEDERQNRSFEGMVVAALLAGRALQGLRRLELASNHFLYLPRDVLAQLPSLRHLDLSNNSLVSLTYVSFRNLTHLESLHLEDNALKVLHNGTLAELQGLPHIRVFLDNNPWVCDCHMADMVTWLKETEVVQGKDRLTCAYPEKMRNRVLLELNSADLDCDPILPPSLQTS

T2: human TPBG (full length, on cells) (human, UniProt Q13641 32-420)
T2 construct: whole, on cells; On transfected HEK293 or CHO-K1 cells; for the tumour lines NCI-H1568 and NCI-H1299 it is the cells' own TPBG; also called hTPBG; 5T4
T2 sequence (looked up): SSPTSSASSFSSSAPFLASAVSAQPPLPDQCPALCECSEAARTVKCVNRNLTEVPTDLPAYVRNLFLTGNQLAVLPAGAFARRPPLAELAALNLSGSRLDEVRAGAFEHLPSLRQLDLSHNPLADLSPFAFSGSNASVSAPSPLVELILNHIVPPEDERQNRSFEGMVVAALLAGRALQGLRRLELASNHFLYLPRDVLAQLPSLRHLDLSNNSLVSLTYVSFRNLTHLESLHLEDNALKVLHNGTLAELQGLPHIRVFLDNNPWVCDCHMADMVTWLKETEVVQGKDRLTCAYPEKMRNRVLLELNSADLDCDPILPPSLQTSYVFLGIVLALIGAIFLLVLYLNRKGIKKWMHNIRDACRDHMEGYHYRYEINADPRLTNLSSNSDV

B1: 28D4E6A9 (antibody, V domains shown)
VH: DVQLVESGGGLVRPGGSLKLSCAASGFTFSNYVMSWARQSPEKRLEWVAEISTGGSHTYYSDTVTGRFTISRDNAKKALYLEMSSLRSEDTAIYYCIMFYYGSSYSMDYWGQGTSVTVSS
VL: DIQMTQSTSSLSASLGDRITISCRASQDIRNYLNWYQQKPDGTVKLLIYHTSRLHSGVPSRFSGSGSGTDYSLTISNLEQEDIATYFCQQGDTLPLTFGAGTRLELK
notes: Mouse hybridoma antibody purified from culture supernatant; also called TPBG antibody; lead antibody
B2: 103E2E9C2 (antibody, V domains shown)
VH: EVQLQQSGPVLVKPGASVKMSCEASGYSFIDYYMSWVKQSRGRSLEWIGVFNPYSGEIIYNQKFKGKATLTVDKSSSTAYMELSSLTSEDSGVYSCARLRISYYAIDYWGQGTSVAVSS
VL: ENVLTQSPAIMSASPGEKVTMTCRATSSVSSGHFHWYQQKSGASPKVWIYSTSNLASGVPARFSGSGSGTSFSLTISSVEAEDVATYFCQQYSGYPLTFGGGTKLEIK
notes: as for B1
B3: 37H9C5G2 (antibody, V domains shown)
VH: QVQLQQSDAELVRPGASVKMSCKVSGYTFTDHTIHWMKQRPEQGLEWIGYIYPRDGSGTYNEKFKGKATLTADKSSSTAYMQLNSLTSEDSAVYFCARDGSSHYWYFDVWGTGTTVTVSS
VL: DIQMTQSPASLSASVGETVTITCRASEIIYNYLAWYQQKQGKSPQLLVYNAKTLAEGVPSRFSGSYSGTQFSLNINSLQSEDFGIYYCQHHHDTPLTFGAGTKLDLK
notes: as for B1
B4: 5G4H10G5 (antibody, V domains shown)
VH: EVQLVESGGDLVQPGGSLKLFCAASGFTFSTYGLSWVRQTPDKRLELVATITNNDGSAYYPDSVKGRFTISRDKAKNTLFLQMTSLKSEDTAMYYCARETGFGSSYLFDYWGQGTLVTVSA
VL: NIVMTQTPKFLLVSAGDRVTITCKASQSVSNDVAWYQQKPGQSPKLLIYFATNRYTGVPNRFTGSGYGTEFTFTISSVQAEDLAVYFCQQDYSSPTFGGGTKLEIK
notes: as for B1
B5: 99E12C7H1 (antibody, V domains shown)
VH: QIQLVQSGPELKKPGETVKISCKPSGYTFTAYGLSWVKQAPGQGFQWMGWINTYSGVPTYTDDFKGRFAFSLETSAGTASLQITNLKNEDTATYFCARSSIPPFEYWGPGTTLTVSS
VL: SFVMTQSPKFLLVSVGDRVTITCKASQSVSNDVAWYQQKPGQPPRVLIYFASNRYTGVPDRFTGSGYGTDFTFTISTVQAEDLALYFCQQDYSSPWTFGGGTKLEIK
notes: as for B1
B6: 12B12C7C3 (antibody, V domains shown)
VH: DVQLVESGGGLVQPGGSRKLSCAASGFTFSNFGMHWVRQAPEKGLEWVAYISSGSTSFYYADTVKGRFTISRDNPKNTLFLQMTSLRSEDTAMYYCSRTNSLLRGFFDAWGAGTTVTVSS
VL: DIVLTQSPASLAVSLGQRATISCRASQSVSSSSYTYLHWYQQKPGQPPKLLIKSASNLESGVPARFSGTGSGTDFTLNIHPVEEEDTATYYCQHSWEIPLTFGAGTKLELK
notes: as for B1
B7: 106D5G3D10 (antibody, V domains shown)
VH: EVQLVESGGGLVKPGGSLKLSCAASGFTFSDYGMHWVRQAPEKGLEWVGYISSGTYVVYYADTVKGRFTISRDNAKNTLFLQMTSLRSEDTAIYYCSTYGSNPFDYWGQGTTLTVSS
VL: QLVLTQSPAIMSASPGEKVTITCSATSSVSSMHWFQQKPVTSPKLWIYSTSNLASGVPTRFSGSGSGTSYSLTISRMEAEDAATYYCQQRSGYPPIFTFGSGTKLEIK
notes: as for B1
B8: 36A10D8B12 (antibody, V domains shown)
VH: DVQLQESGPGMVKPSQSLSLTCTVTGYSITSGYDWHWIRHFPGNKLEWMGYISYSGNTNYNPSLKSRISITHNTSKNHFFLRLNSVTTEDTATYYCARGYGNWDAMDYWGQGTSVTVSS
VL: DIVMTQSQKFMSTSVGDRVSVTCKASQIVDTNVAWYQQKPGQSPKALISSASYRYSGVPDRFTGSGSGTDFTLTISNVQSEDLAEYFCQQYNSYPLTFGAGTKLELT
notes: as for B1
B9: 39A11G5F2 (antibody, V domains shown)
VH: QVQLQQSGAELMKPGASMRLSCKATGYTFTGYWLEWIKRRPGHGLEWIGEILPGRGSTNYNEKFKGKATFTAETSSNTAYMQLTSLTTEDSAIYYCARGGRDFDNWGQGTTLTVSS
VL: DIQMTQSTSSLSASLGDRVTISCSASQGINNHLNWYQQKPDGTVKLLIYYTSSLHSGVPSRFSGSGSGTDYSLTISNLEPEDIAIYYCQQFSKLPYTFGGGTKVEMK
notes: as for B1
B10: 52C9E9F6 (antibody, V domains shown)
VH: QVQLQQSGAELMKPGASVKLSCKATGYTFTGYWIEWIKQRPGHGLEWIGEILPGRGSTDYNEKFKGKATFTADTSSNTAYMQLSSLTTEDSAIYYCTRGRLDFTYWGQGTLVTVSA
VL: B9 VL with S7T, N30R, H32Y, I85T, F91Y, L94V, Y96W, V104L, M106I
notes: as for B1

molecular target: T1, biotinylated recombinant TPBG protein; assay: competitive ELISA; row antibody 5 ug/mL; competitor: coated 28D4E6A9
Method: The purified antibodies to be tested were diluted to 1 μg/mL using PBS, and coated with high-adsorption of 96-well microplates at […]. After overnight coating at 4[…], 250 μL of blocking buffer (PBS containing 0.01% (v/v) Tween20 and 1% (w/w) BSA) was added to block coating at room temperature for 1 h, and 0.05 μg/mL of biotinylated recombinant TPBG protein was added to each well. Meanwhile, 5 μg/mL final concentration of competitive antibodies, i.e. the purified antibodies obtained from Embodiment 2 with the clone number of 12B12C7C3, 5G4H10G5, 37H9C5G2, 39A11G5F2, 52C9E9F6, 28D4E6A9, 36A10D8B12, 99E12C7H1, 103E2E9C2 and 106D5G3D10 were added and incubated at 25-37° C. for 1-2 h. The plates were washed three times with plate-washing buffer (PBS containing 0.01% (v/v) Tween20) and HRP (horseradish peroxidase)-labeled streptavidin (purchased from Sigma) was added. After incubating at 37° C. for 0.5 h, the plates were washed three times with plate-washing buffer (PBS containing 0.01% (v/v) Tween20), and 100 μL of TMB substrate was added to each well and the plates were further incubated at room temperature for 30 min prior to adding 100 μL of stop buffer (1.0N HCl) to each well. A₄₅₀ₙₘ values were read using an ELISA microplate reader (SpectraMax 384plus purchased from Molecular Device) and results were shown in FIG. 6. The higher the values of the competition rate, the closer the antigen surface of the two antibodies are.

Row | competition rate [%] | Binder
1 | 96 | B1
2 | 95 | B2
3 | 58 | B3
4 | -1 | B4
5 | 38 | B5
6 | 74 | B6
7 | 1 | B7
8 | 86 | B8
9 | 0 | B9
10 | 17 | B10

molecular target: T2, human TPBG (full length, on cells); assay: FACS on CHO-K1-hTPBG cells
Text: The stable cell lines CHO-k1-hTPBG, CHO-k1-cTPBG, CHO-k1-mTPBG (i.e. the CHO-k1-hTPBG 3A2F1, CHO-k1-cTPBG 3F13G4 and CHO-k1-mTPBG 3A3 shown in table 7) and CHO-K1 cells were expanded to a 90% of confluency in T-75 cell culture flasks, the culture medium were removed, and cells were then rinsed twice with HBSS buffer (Hanks Balanced Salt Solution, purchased from Invitrogen) and lysed with enzyme-free cell dissociation buffer (Versene solution purchased from Life technology) and harvested. Harvested cells were rinsed with HBSS buffer twice and counted before diluting with HBSS buffer to 2×10⁶ cells /mL, and 10% goat serum blocking buffer was then added, wherein the percentage is the mass percentage. Cells were incubated on ice for 30 min, and then washed twice with HBSS buffer by centrifugation. The harvested cells were resuspended with FACS buffer (HBSS+1% BSA, wherein the percentage is mass percentage) to a concentration of 2×10⁶ cells /mL. 100 μL per well of the cells was aliquoted to 96-well FACS reaction plates, and 100 μL per well of test sample—the purified TPBG antibody obtaining from Embodiment 2 was added before incubating on ice for 2 h. The plate was washed with the FACS buffer twice by centrifugation, and 100 μL per well of fluorescence (Alexa 488) labeled secondary antibody (purchased from Invitrogen) was then added and incubated on ice for 1 h. The plate was washed with the FACS buffer for three times by centrifugation, follow by resuspending in 100 μL of fixation buffer (4% (v/v) paraformaldehyde). Cells were washed with FACS buffer twice after 10 min, follow by resuspending with 100 μL of FACS buffer. The results were measured and analyzed by FACS (FACS Calibur, purchased from BD). Data analysis was performed by software (CellQuest) to obtain mean fluorescence intensity (MFI) of the cells, follow by calculating EC50 value by software (GraphPad Prism) analysis and data fitting. The analysis results were shown in Table 8 and FIGS. 7-10, and data in FIGS. 7-10 show the mean fluorescence intensity (MFI) of cells.

Row | EC50 [nM] | Binder
11 | 0.63 | B1
12 | 0.85 | B2
13 | 0.94 | B3
14 | 1.75 | B4
15 | 3.54 | B5
16 | 0.65 | B6
17 | 1.72 | B7
18 | 0.94 | B8
19 | 2.34 | B9
20 | 3.27 | B10

Source: patent publication US20210198377A1 (XDCEXPLORER SHANGHAI, published 2021)
